Experimental data as given in patent US20020147326A1, “Hexameric fusion proteins and uses therefor” (SmithKline Beecham Corporation, priority 1996, published 2002).
Entries after “also recorded” stand apart in the source; their conditions may differ.

Tests used:
[1] = molecular target: T1, biotinylated CD80-Igαtp binding to immobilized CD28-Ig (Homo sapiens, UniProt P10747); test: Competition ELISA of biotinylated CD80-Igαtp binding to immobilized CD28-Ig; conditions: competitor added simultaneously; wells coated with CD28-Ig
T1 construct: native leader and extracellular domain peptide of CD28 and CD80 were grafted onto a human IgG1 heavy chain Fc region; human IgG1 Fc (hinge/CH2/CH3); made in house; host or cells: CHO cells
Procedure: The wells of 96 well microtiter plates (Immunlon 4, Dynatech Laboratories) were coated with CD28-Ig (1, 2, or4 μg/ml) in 100 μl/well of 0.1 M sodium bicarbonate, pH 9.4 and incubated overnite @4° C. The wells were washed with PBS (phosphate buffered saline) and blocked with 0.5% gelatin in PBS for 1 hour. Following an additional PBS wash, biotinylated CD80-Igαtp was serially diluted in PBS containing 1 mg/ml BSA, 0.05% Tween directly in the wells in a final volume of 0.1 ml and incubated for 1 hour. The wells were washed with PBS and bound CD80-Igαtp protein was measured by the addition of 0.1 ml of strepavidin-HRP (streptavidin conjugated with horseradish peroxidase (Southern Biotech)) at a 1:2000 dilution for 1 hour, followed by washing and color development with 100 μl ABTS substrate (Kierkegaard and Perry Laboratories Inc., Maryland) and measurement of absorbance at 405 nm. In some cases the color reactions were arrested by addition of 100 μl of 1% SDS prior to measurement of absorbance. In this figure, “CD28-Fc”, “CTLA4-Fc”, and “B7-FcA” denote CD28-Ig, CTLA4-Ig, and CD80-Igαtp, respectively.

[2] = tested on: murine T-cell hybridoma cell lines expressing human CD28 (PCD28.1.s2.1, DCL27CD28wt.s2); test: IL-2 production by CD28 T-cell hybridomas (CTLL-2 bioassay); type: cell-based; conditions: addition of CTLA4-Ig
Source text: The CD80- and CD86-Igαtp proteins were compared to the corresponding CD80 and CD86-Ig proteins to determine their ability to stimulate cells expressing human CD28 using two murine T-cell hybridoma cell lines expressing human CD28, PCD28.1.s2.1 and DCL27CD28wt.s2. The PCD28.1.s2.1 cell line was described in Example 1, part 3. The DCL27CD28wt.s2 cell line was created by transfection of the DC27 cell line [F. Pages et al., Nature, 369:327-329 (1994); F. Pages et al., J. Biol. Chem., 271(16):9403-9409 (1996)] with the same CD28 expression vector used for the PCD28.1.s2.1 cells [D. Couez et al., Molecular Immunology, 31:47-57 (1994)]. These cell lines were examined for their ability to produce IL-2 in response to activation with CD80- and CD86-Ig in comparison with the corresponding Igαtp fusion proteins. 96-well plates were coated with or without a CD3 antibody together with the CD80 and CD86 fusion proteins. This was accomplished by first incubating the plates with a previously determined suboptimal concentration of hamster […] CD3 antibody (MAb 145-2C11, Boerhinger-Mannheim Biochemicals) for two hours at room temperature (RT) or with just buffer alone, washing the plates with PBS, adding goat anti-human Ig heavy chain (GAH-IgHc, Sigma Chemical Co.) for an additional two hours at RT, washing again and coating with different concentrations of the CD80 or CD86 fusion protein for 16-18 hours at 4° C., washing again, and finally blocking for 30 min. with 0.2% BSA-PBS. T cells (1×10^5/well) were added in 150 μl medium into duplicate wells. For comparison, the soluble fusion proteins and the 248.23.2 CD28 MAb (IgM) [A. Morretta, University of Genova, Italy] were added to non-coated wells. T cells were incubated in the wells for 24 hours at 37° C., and supernatants were collected and evaluated for IL-2 levels in a standard CTLL-2 bioassay [S. M. Gillis et al., J. Immunol., 120:2027 (1978)]. Briefly, 1×10^4 IL-2 dependent CTLL-2 cells (ATCC)/well in 75 μl medium were added to an equal volume of test supernatant and incubated for 24 hours at 37° C. The cells were pulsed with 10 μl of 5 mg/ml MTT (Sigma Chemical Co.) for 4 hours, and lysed with […] 10% SDS/0.01N HCl solution for 14-16 hours. OD570 readings were converted into ng/ml of IL-2 based on a standard curve generated by treating cells with known concentrations of IL-2.
IL-2 promoter activity and IL-2 levels were measured similarly to that described in parts A and B above, except that proliferation of the reader CTLL-2 cells was measured by ^3H-thymidine incorporation.

Substance: CTLA4-Ig: binding protein/Fc construct for human CTLA4 with human IgG1 Fc
- inhibition of biotinylated CD80-Igαtp binding to immobilized CD28-Ig [1]: inhibited; also recorded: blocked the binding sites on CD80-Igαtp
- blockade of the response to CD80- and CD86-Igαtp [2]: complete blockade
